Laboratory results as given in patent publication US20100260776A1.

Target: KDR (VEGF receptor, flk-1/KDR, VEGFR2) (human) (UniProt P35968)
Experiment: in vitro receptor saturation; format not stated

concentration at 50% saturation of VEGF receptors: 0.2 µg/mL
concentration at 100% saturation of VEGF receptors: 3 µg/mL
Substance: IMC-1C11 (antibody)
